Assay results: patent publication US9023987B2, “Cell-permeable peptide” (Seoul National University R&DB Foundation, priority 2010, dated 2015)

Target: T1, Smurf1 (Homo sapiens, UniProt Q9HCE7)
T1 construct: endogenous in cells; host or cells: human mesenchymal stem cells (hMSC)
Experiment: Immuno-precipitation and western blot of Smad1/5/8 ubiquitination in hMSC
Format: cell-based
Settings: hMSC pre-treated with MG132, 10 mM peptide, 1 hour 30 minutes; compared with MG132 only; FIG. 2B
From the text: In order to confirm presence or absence of the active site of the cell permeable peptide-bone differentiation inducing sequence conjugate synthesized by the method in Example 1 for binding to Smurf1, an immuno-precipitation method and a western blot assay method were used. The present experimental method is applied in order to confirm that the cell permeable peptide-bone differentiation inducing sequence conjugate synthesized by the method in Example 1 may suppress a bioactivity of Smurf1 decomposing Smd1/5/8 as one of the E3 ligases playing a role in ubiquitin ligation.
1×10^6 human mesenchymal stem cells (hMSC) used as a model cell in the present experiment were plated in each dish and then cultured in a general medium for 20 hours (overnight incubation). Then the cells was cultured in an hMSC basal medium (MSCBM™, LONZA, USA) containing 0.5% fetal bovine serum (FBS, GIBCO, USA) for 20 hours (overnight starvation). After overnight starvation in 0.5% MSCBM™, […] MG132 (MG132; proteasome inhibitor, Merck, USA) was added to the same medium to allow the cells to be pre-treated for 2 hours. Thereafter, the cell permeable peptide-bone differentiation inducing sequence conjugate synthesized by the method in Example 1 and peptides of Comparative Examples 1 and 2 were injected into each dish at a concentration of […], respectively, and cultured for 1 hour 30 minutes. […]

T1 sequence (Q9HCE7 whole entry): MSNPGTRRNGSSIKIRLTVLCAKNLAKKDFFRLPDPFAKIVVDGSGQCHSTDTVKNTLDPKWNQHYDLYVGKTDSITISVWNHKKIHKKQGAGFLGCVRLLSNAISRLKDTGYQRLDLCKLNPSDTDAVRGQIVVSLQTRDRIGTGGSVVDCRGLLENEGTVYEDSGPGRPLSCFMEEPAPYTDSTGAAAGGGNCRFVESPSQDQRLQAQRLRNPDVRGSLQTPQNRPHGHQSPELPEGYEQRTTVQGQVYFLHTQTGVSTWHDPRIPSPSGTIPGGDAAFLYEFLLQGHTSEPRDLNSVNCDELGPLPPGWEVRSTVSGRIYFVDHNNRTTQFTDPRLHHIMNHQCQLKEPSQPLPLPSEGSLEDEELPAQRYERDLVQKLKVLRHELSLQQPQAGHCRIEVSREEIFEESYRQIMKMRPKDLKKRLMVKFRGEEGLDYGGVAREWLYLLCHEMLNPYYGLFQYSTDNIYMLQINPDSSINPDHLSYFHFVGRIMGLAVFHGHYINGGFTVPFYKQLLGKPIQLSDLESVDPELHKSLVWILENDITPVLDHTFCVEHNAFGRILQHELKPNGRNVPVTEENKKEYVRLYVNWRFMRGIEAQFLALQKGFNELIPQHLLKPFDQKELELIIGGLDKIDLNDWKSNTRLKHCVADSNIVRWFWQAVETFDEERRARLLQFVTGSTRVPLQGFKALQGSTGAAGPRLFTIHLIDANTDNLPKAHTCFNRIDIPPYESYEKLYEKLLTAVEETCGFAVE

NH2-GAPPPADSAP-SSRKKNPNCRRH-C-COONH2 (H-GAPPPADSAPSSRKKNPNCRRHC-NH2; cysteine pairing not given here) [Example 1]
ubiquitination of Smad1/5/8 (ubiquitin antibody after Smad1/5/8 immuno-precipitation): ubiquitination of Smad1/5/8 was suppressed
